The values that follow come from US20250144178A1, “PHARMACEUTICAL COMPOSITION FOR CANCER TREATMENT COMPRISING FUSION PROTEIN INCLUDING IL-12 AND ANTI-FAP ANTIBODY AND ANTICANCER AGENT” (KANAPH THERAPEUTICS INC., priority 2022, published 2025).

In data set [1] the target is T1, recombinant mouse FAP (Mus musculus, UniProt P97321).
T1 sequence (P97321 1-761): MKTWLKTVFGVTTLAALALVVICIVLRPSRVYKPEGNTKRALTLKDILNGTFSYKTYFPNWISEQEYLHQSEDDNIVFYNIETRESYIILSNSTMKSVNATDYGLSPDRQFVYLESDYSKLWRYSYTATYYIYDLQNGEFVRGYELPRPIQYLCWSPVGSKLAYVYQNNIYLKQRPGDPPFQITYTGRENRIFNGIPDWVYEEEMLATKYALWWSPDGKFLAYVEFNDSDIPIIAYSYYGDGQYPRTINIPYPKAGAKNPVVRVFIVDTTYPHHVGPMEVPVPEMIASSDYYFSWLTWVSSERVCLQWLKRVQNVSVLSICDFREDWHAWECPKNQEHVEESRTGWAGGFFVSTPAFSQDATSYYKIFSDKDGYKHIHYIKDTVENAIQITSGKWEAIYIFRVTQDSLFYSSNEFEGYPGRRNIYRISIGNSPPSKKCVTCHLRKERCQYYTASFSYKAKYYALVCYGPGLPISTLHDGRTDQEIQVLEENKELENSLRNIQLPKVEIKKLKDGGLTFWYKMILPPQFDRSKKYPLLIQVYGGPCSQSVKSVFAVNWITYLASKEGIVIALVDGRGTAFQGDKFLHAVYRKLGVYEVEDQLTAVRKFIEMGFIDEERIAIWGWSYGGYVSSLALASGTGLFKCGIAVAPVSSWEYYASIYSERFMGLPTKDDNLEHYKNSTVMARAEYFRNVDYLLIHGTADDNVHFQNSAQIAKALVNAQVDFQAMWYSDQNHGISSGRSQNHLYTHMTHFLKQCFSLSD
In words: Surface plasmon resonance binding to recombinant mouse FAP. The conditions noted are these: SPR, 2 μg/ml protein, FIGS. 13 and 14. The procedure: The surface of the CM5 chip was activated with a 1:1 mixture of […] (N-hydroxysuccinimide) and […] (1-Ethyl-3-(3-dimethylaminopropyl) carbodiimide), and 25 μg/ml of anti-mouse IgG (Fc) antibody was immobilized for 400 seconds at a rate of 10 μl/min. The remaining active ester groups were blocked with 1 M ethanolamine. T1.01m, T1.02m and T1.03m were diluted to 2 μg/ml and reacted on the CM5 chip immobilized with the anti-mouse IgG (Fc) antibody. The recombinant mouse FAP was diluted to 200 nM in 1×HBS-EP+buffer solution and diluted by serial dilution. The diluted recombinant mouse FAP was reacted at a rate of 30 μl/min. The association and dissociation times were 180 seconds and 400 seconds, respectively. After the dissociation, stabilization was performed for 60 seconds, and then a regeneration was performed for 30 seconds with a 10 mM glycine pH 1.5 solution at a rate of 30 μl/min.
Background: SPR reads the build-up and loss of mass on a sensor chip optically.

The test system of data set [2] is HEK-Blue IL-12 cells. The experiment in a line: Signaling ability in IL-12 recognizing cells (STAT4 inducible SEAP reporter). It counts as cell-based, human. To be noted: serial dilution from 4 nM, 24 hours, FIG. 18. As to the method: The HEK-Blue IL-12 cell line transformed with the IL-12 receptor gene and the STAT4 inducible SEAP reporter gene into HEK293 cells, which are human embryonic kidney fibroblasts, was obtained from Invivogen (San Diego, USA). The HEK-Blue IL-12 cells were maintained in DMEM (GIBCO) containing 10% FBS (GIBCO), 100 μg/ml Normocin and 1×HEK-Blue selection.
Specifically, the HEK-Blue IL-12 cell line, which is an IL-12 recognizing cell, was diluted to 2.8×10^5 cells/ml and dispensed at 180 μl/well. Recombinant human IL-12, T1.01m, T1.02m, T1.03m and T1.12m were suspended at 4 nM and diluted by serial dilution. HEK-Blue IL-12 cells were treated with the diluted recombinant human IL-12, T1.01m, T1.02m, T1.03m and T1.12m. After 24 hours of treatment, the cell supernatant was collected and mixed with QUANTI-Blue Solution (Invivogen) in a 96-well plate. The reporter expression level was measured at 620 nm using a spectrophotometer (Thermo Fisher).

The test system of data set [3] is FAP-overexpressing mouse colorectal cancer CT26. In words: Tumor growth inhibition by IL-12 mutation, FAP-overexpressing CT26, single i.v. dose. It counts as in vivo, BALB/c mice. The conditions noted are these: 10 μg i.v. once, FIG. 28. As to the method:
In order to evaluate the change in IL-12 activity according to the presence and extent of amino acid mutation, FAP-overexpressing mouse colorectal cancer CT26 was prepared by resuspending in PBS at a concentration of 5×10^5 cells/100 μl, and the tumor growth inhibitory ability was evaluated in a tumor animal model prepared by transplantation of the cells into 5-week-old female BALB/c mice.
Specifically, when the size of the tumor in the model reached 100 mm^3, the mice were randomly divided into groups. 100 μl of phosphate buffered saline (PBS) was administered once via tail vein injection of the control, and each of T1.01m, T1.02m and T1.03m was intravenously administered once at a dose of 10 μg.

The subject of data set [4] is FAP-overexpressing mouse colorectal cancer cell line CT26 cells. The experiment in a line: Single administration of T1.03m in FAP-overexpressing CT26 model. It counts as in vivo, BALB/c mice. The procedure:
Specifically, the tumor cells were transplanted into the right dorsal flank side of 6-week-old BALB/c mice, and when the size of the tumor of the animal model reached 70 to 100 mm^3, the mice were randomly divided into groups and the administration was performed. As the control, PBS was administered, and as the test group, 100 μl of T1.03m was intravenously administered once at a dose of 2 μg, 10 μg and 100 μg. The size of the tumor was measured in the same manner as in Example 4.1.

Data set [5] has as its system mouse FAP overexpressing B16F10 melanoma. The experiment in a line: Melanoma model, mouse FAP overexpressing B16F10. Format: in vivo, C57BL/6J mice. The conditions noted are these: during the test period. The procedure:
In order to identify the anticancer effect through immune activation of the fusion protein, mouse FAP was overexpressed in the mouse melanoma cell line B16F10, which is known to have little immune cell infiltration, and then transplanted into C57BL/6J mice, and the tumor growth inhibitory ability was evaluated.
Specifically, the cells in culture were resuspended in Hanks' Balanced salt solution (HBSS, Gibco), and then 100 μl of 1×10^6 tumor cells per each mouse were transplanted into the subcutaneous region of the left the dorsal flank side of 6-week-old C57BL/6J mice.
(§1) Next, for drug efficacy evaluation, when the size of the tumor reached 70 to 100 mm^3, the mice were randomly divided into groups. As the control, PBS was administered, and as the test group, T1.03m was intravenously administered once at a dose of 10 μg and 100 μg.

The subject of data set [6] is LLC1 lung cancer with NIH-3T3 overexpressing FAP. Format: in vivo, C57BL/6J mice. The procedure:
Specifically, the NIH-3T3 cell line overexpressing FAP and the LLC1 cells were resuspended in Hanks' Balanced salt solution (HBSS, Gibco) at a concentration of 1×10^6 cells/50 μl, respectively, and the cells were mixed in a 1:1 ratio, and then 100 μl per each mouse was transplanted into the subcutaneous region of the right flank of 6-week-old C57BL/6J mice using a 1 cc syringe (25G).
as §1

Data set [7] shares this test system. The experiment in a line: Cancer targeting efficacy, LLC1 co-injected with FAP overexpressing NIH-3T3. It counts as in vivo, mouse. To be noted: FIG. 32. The text has this: In order to compare the anticancer efficacy according to the cancer targeting of the dual antibody-type fusion protein in which the anti-FAP sequence structure and the IL-12 sequence structure form a Knob-in-Hole structure, the tumor growth inhibitory ability was identified in an animal model co-injected with NIH-3T3 cell overexpressing FAP, a mouse fibroblast cell line, and LLC1, a mouse lung cancer cell line, in a 1:1 ratio.
Specifically, for drug efficacy evaluation, when the size of the tumor reached 70 to 100 mm^3, the mice were randomly divided into groups. As the control, PBS was intraperitoneally administered twice a week. The group administered with T1.16m or T1.17m alone, the group administered with T1.16m and T1.17m in combination (T1.16m+T1.17m), and the group administered with T1.03m were used as test groups to evaluate the tumor growth inhibitory ability. T1.16m and T1.17m, which are dimers of anti-FAP and IL-12, respectively, were intraperitoneally administered twice a week at a dose of 0.01 μg, and T1.03m, which is a monomer fusion protein, was intraperitoneally administered twice a week at a dose of 0.02 μg to observe the tumor growth inhibitory ability.

Read-outs that look alike come from different tables or passages of the source.

B1: T1.03m: K&H bispecific: anti-mu FAP/mu IL-12 mut2, mu IgG2a DANG (seq18, seq19, seq22) (antibody)
heavy: QVQLQQSGAELARPGASVNLSCKASGYTFTNNGINWLKQRTGQGLEWIGEIYPRSTNTLYNEKFKGKATLTADRSSNTAYMELRSLTSEDSAVYFCARTLTAPFAFWGQGTLVTVSAAKTTAPSVYPLAPVCGDTTGSSVTLGCLVKGYFPEPVTLTWNSGSLSSGVHTFPAVLQSDLYTLSSSVTVTSSTWPSQSITCNVAHPASSTKVDKKIEPRGPTIKPCPPCKCPAPNLLGGPSVFIFPPKIKDVLMISLSPIVTCVVVAVSEDDPDVQISWFVNNVEVHTAQTQTHREDYGSTLRVVSALPIQHQDWMSGKEFKCKVNNKDLPAPIERTISKPKGSVRAPQVYVLPPPEEEMTKKQVTLWCMVTDFMPEDIYVEWTNNGKTELNYKNTEPVLDSDGSYFMYSKLRVEKKNWVERNSYSCSVVHEGLHNHHTTKSFSRTPGK
light: QIVLTQSPAIMSASPGEKVTMTCSASSGVNFMHWYQQKSGTSPKRWIFDTSKLASGVPARFSGSGSGTSYSLTISSMEAEDAATYYCQQWSFNPPTFGGGTKLEIKRADAAPTVSIFPPSSEQLTSGGASVVCFLNNFYPKDINVKWKIDGSERQNGVLNSWTDQDSKDSTYSMSSTLTLTKDEYERHNSYTCEATHKTSTSPIVKSFNRNEC
chain: MWELEKDVYVVEVDWTPDAPGETVNLTCDTPEEDDITWTSDQRHGVIGSGKTLTITVKEFLDAGQYTCHKGGETLSHSHLLLHKKENGIWSTEILKNFKNKTFLKCEAPNYSGRFTCSWLVQRNMDLKFNIKSSSSSPDSRAVTCGMASLSAEKVTLDQRDYEKYSVSCQEDVTCPTAEETLPIELALEARQQNKYENYSTSFFIRDIIKPDPPKNLQMKPLKNSQVEVSWEYPDSWSTPHSYFSLKFFVRIQAAAEKMAETEEGCNQKGAFLVEKTSTEVQCKGGNVCVQAQDRYYNSSCSKWACVPCRVRSGGGGSGGGGSGGGGSRVIPVSGPARCLSQSRNLLKTTDDMVKTAREKLKHYSCTAEDIDHEDITRDQTSTLKTCLPLELHKNESCLATRETSSTTRGSCLPPQKTSLMMTLCLGSIYEDLKMYQTEFQAINAALQNHNHQQIILDKGMLVAIDELMQSLNHNGETLRQKPPVGEADPYRVKMKLCILLHAFSTRVVTINRVMGYLSSAGGGGSGGGGSEPRGPTIKPCPPCKCPAPNLLGGPSVFIFPPKIKDVLMISLSPIVTCVVVAVSEDDPDVQISWFVNNVEVHTAQTQTHREDYGSTLRVVSALPIQHQDWMSGKEFKCKVNNKDLPAPIERTISKPKGSVRAPQVYVLPPPEEEMTKKQVTLSCAVTDFMPEDIYVEWTNNGKTELNYKNTEPVLDSDGSYFMVSKLRVEKKNWVERNSYSCSVVHEGLHNHHTTKSFSRTPGK
For B1, in data set [1], the “Binding to recombinant mouse FAP” value is reported as “may bind to recombinant mouse FAP to specifically target FAP”. In addition, the “IL-12 recognition / STAT4 reporter gene expression (620 nm absorbance)” value in data set [2] was “IL-12 was recognized, and STAT4 expressed a reporter gene by inducing phosphorylation”. For the same molecule, the “tumor growth inhibitory ability compared to the control” value in data set [3] (15 days after administration, control PBS) is “excellent tumor growth inhibitory ability”; in data set [4] (2 μg, 10 μg and 100 μg i.v. once, control PBS, FIG. 29) it was “high tumor growth inhibitory ability”; in data set [6] (10 μg or 100 μg i.v. once, control PBS, FIG. 31), “excellent tumor growth inhibitory ability”; in data set [7] (0.02 μg i.p. twice a week, 10 days after administration, control PBS), “excellent tumor growth inhibitory ability”. In data set [3], the “tumor growth inhibitory ability compared to the group administered with T1.01m” value was “reduced”. For the same molecule, the “change in body weight” value in data set [4] (during the test period) is recorded as “No change in body weight”; in data set [5] it was “No change in body weight”; in data set [6] (mouse, in vivo), “No change in body weight”. Further, the “tumor growth inhibitory ability compared with T1.16m or T1.17m alone and their combination” value in data set [7] (T1.03m 0.02 μg, T1.16m and T1.17m 0.01 μg, i.p. twice a week) was “excellent tumor growth inhibitory ability”.
